Results as given in doi:10.1101/2022.06.26.497666 (bioRxiv, 2022).

Tests used:
[1] = biological target: the molecule itself; experiment: SEC + other: negative-stain EM
[2] = biological target: T1, NLRP1 (wild-type full-length human NLRP1) (human, UniProt Q9C000-1); experiment: co-IP
T1 sequence: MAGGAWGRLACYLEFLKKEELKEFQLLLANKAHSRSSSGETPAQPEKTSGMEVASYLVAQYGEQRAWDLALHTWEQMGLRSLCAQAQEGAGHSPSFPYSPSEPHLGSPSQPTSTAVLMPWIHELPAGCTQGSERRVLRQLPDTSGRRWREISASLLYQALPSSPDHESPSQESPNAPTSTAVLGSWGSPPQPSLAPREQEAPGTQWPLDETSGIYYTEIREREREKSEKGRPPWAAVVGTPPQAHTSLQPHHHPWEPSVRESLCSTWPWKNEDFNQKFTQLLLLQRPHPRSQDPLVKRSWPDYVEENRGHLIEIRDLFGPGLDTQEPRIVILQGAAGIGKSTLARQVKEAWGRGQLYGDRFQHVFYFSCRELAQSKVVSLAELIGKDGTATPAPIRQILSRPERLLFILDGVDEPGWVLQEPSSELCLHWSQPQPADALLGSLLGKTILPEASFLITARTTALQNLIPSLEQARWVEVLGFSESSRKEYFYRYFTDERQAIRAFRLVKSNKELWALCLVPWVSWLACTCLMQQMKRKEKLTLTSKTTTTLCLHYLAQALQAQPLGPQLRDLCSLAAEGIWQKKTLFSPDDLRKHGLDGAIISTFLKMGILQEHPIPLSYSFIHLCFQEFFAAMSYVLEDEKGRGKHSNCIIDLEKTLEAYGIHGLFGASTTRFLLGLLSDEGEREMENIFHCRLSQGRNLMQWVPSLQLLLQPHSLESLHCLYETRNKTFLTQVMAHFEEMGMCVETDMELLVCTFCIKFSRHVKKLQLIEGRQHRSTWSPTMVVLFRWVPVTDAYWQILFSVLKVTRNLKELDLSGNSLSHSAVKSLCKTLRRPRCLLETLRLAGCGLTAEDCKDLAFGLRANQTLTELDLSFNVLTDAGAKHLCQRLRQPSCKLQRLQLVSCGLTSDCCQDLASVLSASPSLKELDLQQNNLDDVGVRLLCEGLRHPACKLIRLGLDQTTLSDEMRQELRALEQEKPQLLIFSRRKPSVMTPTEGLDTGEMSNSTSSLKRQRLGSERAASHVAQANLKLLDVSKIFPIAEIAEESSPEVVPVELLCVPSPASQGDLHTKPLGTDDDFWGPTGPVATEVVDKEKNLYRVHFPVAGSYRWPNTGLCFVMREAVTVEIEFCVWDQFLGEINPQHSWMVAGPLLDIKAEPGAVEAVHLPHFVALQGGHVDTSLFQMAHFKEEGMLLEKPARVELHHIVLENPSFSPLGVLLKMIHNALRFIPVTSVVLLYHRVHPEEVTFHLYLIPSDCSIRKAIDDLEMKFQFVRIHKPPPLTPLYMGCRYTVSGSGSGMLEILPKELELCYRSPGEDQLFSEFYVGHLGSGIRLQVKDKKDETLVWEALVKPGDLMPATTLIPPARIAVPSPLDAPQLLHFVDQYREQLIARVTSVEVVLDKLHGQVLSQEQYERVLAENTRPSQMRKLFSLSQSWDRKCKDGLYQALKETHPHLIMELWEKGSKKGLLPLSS

B1: MBP-NLRP1 NACHT-LRR R726W mutant (domain or fragment)
chain: GRPPWAAVVGTPPQAHTSLQPHHHPWEPSVRESLCSTWPWKNEDFNQKFTQLLLLQRPHPRSQDPLVKRSWPDYVEENRGHLIEIRDLFGPGLDTQEPRIVILQGAAGIGKSTLARQVKEAWGRGQLYGDRFQHVFYFSCRELAQSKVVSLAELIGKDGTATPAPIRQILSRPERLLFILDGVDEPGWVLQEPSSELCLHWSQPQPADALLGSLLGKTILPEASFLITARTTALQNLIPSLEQARWVEVLGFSESSRKEYFYRYFTDERQAIRAFRLVKSNKELWALCLVPWVSWLACTCLMQQMKRKEKLTLTSKTTTTLCLHYLAQALQAQPLGPQLRDLCSLAAEGIWQKKTLFSPDDLRKHGLDGAIISTFLKMGILQEHPIPLSYSFIHLCFQEFFAAMSYVLEDEKGRGKHSNCIIDLEKTLEAYGIHGLFGASTTRFLLGLLSDEGEREMENIFHCRLSQGRNLMQWVPSLQLLLQPHSLESLHCLYETWNKTFLTQVMAHFEEMGMCVETDMELLVCTFCIKFSRHVKKLQLIEGRQHRSTWSPTMVVLFRWVPVTDAYWQILFSVLKVTRNLKELDLSGNSLSHSAVKSLCKTLRRPRCLLETLRLAGCGLTAEDCKDLAFGLRANQTLTELDLSFNVLTDAGAKHLCQRLRQPSCKLQRLQLVSCGLTSDCCQDLASVLSASPSLKELDLQQNNLDDVGVRLLCEGLRHPACKLIRLGLDQTTLSDEMRQELRALEQEKPQLLIFSRRKPSVMTP
[1]
  binding result: binds

B2: MBP-NLRP1 NACHT-LRR F787_R843del mutant (domain or fragment)
chain: GRPPWAAVVGTPPQAHTSLQPHHHPWEPSVRESLCSTWPWKNEDFNQKFTQLLLLQRPHPRSQDPLVKRSWPDYVEENRGHLIEIRDLFGPGLDTQEPRIVILQGAAGIGKSTLARQVKEAWGRGQLYGDRFQHVFYFSCRELAQSKVVSLAELIGKDGTATPAPIRQILSRPERLLFILDGVDEPGWVLQEPSSELCLHWSQPQPADALLGSLLGKTILPEASFLITARTTALQNLIPSLEQARWVEVLGFSESSRKEYFYRYFTDERQAIRAFRLVKSNKELWALCLVPWVSWLACTCLMQQMKRKEKLTLTSKTTTTLCLHYLAQALQAQPLGPQLRDLCSLAAEGIWQKKTLFSPDDLRKHGLDGAIISTFLKMGILQEHPIPLSYSFIHLCFQEFFAAMSYVLEDEKGRGKHSNCIIDLEKTLEAYGIHGLFGASTTRFLLGLLSDEGEREMENIFHCRLSQGRNLMQWVPSLQLLLQPHSLESLHCLYETRNKTFLTQVMAHFEEMGMCVETDMELLVCTFCIKFSRHVKKLQLIEGRQHRSTWSPTMVVLLAGCGLTAEDCKDLAFGLRANQTLTELDLSFNVLTDAGAKHLCQRLRQPSCKLQRLQLVSCGLTSDCCQDLASVLSASPSLKELDLQQNNLDDVGVRLLCEGLRHPACKLIRLGLDQTTLSDEMRQELRALEQEKPQLLIFSRRKPSVMTP
[1]
  binding result: binds

B3: CARD8-T60 isoform (full-length) (natural protein)
chain: MEKKECPEKSSSSEEELPRRDSGSSRNIDASKLIRLQGSRKLLVDNSIRELQYTKTGIFFQAEACVTNDTVYRELPCVSETLCDISHFFQEDDETEAEPLLFRAVPECQLSGGDIPSVSEEQESSEGQDSGDICSEENQIVSSYASKVCFEIEEDYKNRQFLGPEGNVDVELIDKSTNRYSVWFPTAGWYLWSATGLGFLVRDEVTVTIAFGSWSQHLALDLQHHEQWLVGGPLFDVTAEPEEAVAEIHLPHFISLQAGEVDVSWFLVAHFKNEGMVLEHPARVEPFYAVLESPSFSLMGILLRIASGTRLSIPITSNTLIYYHPHPEDIKFHLYLVPSDALLTKAIDDEEDRFHGVRLQTSPPMEPLNFGSSYIVSNSANLKVMPKELKLSYRSPGEIQHFSKFYAGQMKEPIQLEITEKRHGTLVWDTEVKPVDLQLVAASAPPPFSGAAFVKENHRQLQARMGDLKGVLDDLQDNEVLTENEKELVEQEKTRQSKNEALLSMVEKKGDLALDVLFRSISERDPYLVSYLRQQNL
[2]
  binding result: binds
